Measurements published in patent publication US11034762 (CENTIVAX, dated 2021).

Tests used:
[1] = target: SARS-CoV-2 Receptor Binding Domain (RBD) protein (SARS-CoV-2, UniProt P0DTC2 319-541)
[2] = target: T1, MERS Receptor Binding Domain (RBD) protein (MERS virus, UniProt K9N5Q8 367-606); test: SPR; clone listed as COV2 only at the 21st table, row 57, column 3
T1 construct: also called Middle East Respiratory Syndrome (MERS) virus
T1 sequence: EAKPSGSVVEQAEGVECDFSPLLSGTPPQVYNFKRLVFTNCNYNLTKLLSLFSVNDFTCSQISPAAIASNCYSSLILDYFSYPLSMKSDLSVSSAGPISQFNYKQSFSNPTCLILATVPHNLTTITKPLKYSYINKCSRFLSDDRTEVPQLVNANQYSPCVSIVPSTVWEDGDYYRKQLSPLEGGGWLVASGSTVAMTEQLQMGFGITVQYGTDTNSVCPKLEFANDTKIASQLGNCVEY

[3] = target: T2, SARS-CoV-1 Receptor Binding Domain (RBD) protein (SARS-CoV-1, UniProt P59594 306-527); test: as above
T2 construct: also called SARS1

[4] = target: T1, MERS Receptor Binding Domain (RBD) …; test: SPR; clone listed as COV2 only at the 21st table, row 60, column 3
[5] = target: T2, SARS-CoV-1 Receptor Binding Domain …; test: as above
[6] = target: T1, MERS Receptor Binding Domain (RBD) …; test: SPR; clone listed as COV2 only at the 21st table, row 58, column 3
[7] = target: T2, SARS-CoV-1 Receptor Binding Domain …; test: as above
[8] = target: T1, MERS Receptor Binding Domain (RBD) …; test: SPR; clone listed as COV2 only at the 21st table, row 56, column 3
[9] = target: T2, SARS-CoV-1 Receptor Binding Domain …; test: as above
[10] = target: T1, MERS Receptor Binding Domain (RBD) …; test: SPR; clone listed as COV2 only at the 21st table, row 59, column 3
[11] = target: T2, SARS-CoV-1 Receptor Binding Domain …; test: as above
[12] = target: T1, MERS Receptor Binding Domain (RBD) …; test: SPR; clone listed as COV2 only at the 21st table, row 61, column 3
[13] = target: T2, SARS-CoV-1 Receptor Binding Domain …; test: as above
[14] = target: T1, MERS Receptor Binding Domain (RBD) …; test: SPR; clone listed as COV2 only at the 21st table, row 55, column 3
[15] = target: T2, SARS-CoV-1 Receptor Binding Domain …; test: as above
[16] = target: T1, MERS Receptor Binding Domain (RBD) …; test: SPR; clone listed as COV2 only at the 21st table, row 11, column 3
[17] = target: T2, SARS-CoV-1 Receptor Binding Domain …; test: as above
[18] = target: T1, MERS Receptor Binding Domain (RBD) …; test: SPR; clone listed as COV2 only at the 21st table, row 53, column 3
[19] = target: T2, SARS-CoV-1 Receptor Binding Domain …; test: as above
[20] = target: T1, MERS Receptor Binding Domain (RBD) …; test: SPR; clone listed as COV2 only at the 21st table, row 63, column 3
[21] = target: T2, SARS-CoV-1 Receptor Binding Domain …; test: as above

B1: COVID19_P21_A03 (scFv, V domains shown)
VH: QVQLVQSGAEVKKPGSSVKVSCKASGGTFSNNGLSWVRQAPGQGLEWMGGIIPIFGTANYAQKFQGRVTITADESTSTAYMELSSLRSEDTAVYYCRMGSGISTPMDVWGQGTLVTVSS
VL: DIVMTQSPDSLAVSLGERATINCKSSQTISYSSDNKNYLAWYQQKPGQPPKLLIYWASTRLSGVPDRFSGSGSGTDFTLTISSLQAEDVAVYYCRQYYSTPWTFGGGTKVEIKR
**Q.** What does the source list for B1?
**A.** Kd [1]: 20.6 nM; koff [1]: 0.000858 s⁻¹; kon [1]: 41700 M⁻¹ s⁻¹

B2: COVID19_P09_C05 (scFv, V domains shown)
VH: QVQLVQSGAEVKKPGSSVKVSCKASGYSFSDYYIHWVRQAPGQGLEWMGWIDPNSGGTNYAQKFQGRVTITADESTSTAYMELSSLRSEDTAVYYCAGGSGISTPMDVWGQGTLVTVSS
VL: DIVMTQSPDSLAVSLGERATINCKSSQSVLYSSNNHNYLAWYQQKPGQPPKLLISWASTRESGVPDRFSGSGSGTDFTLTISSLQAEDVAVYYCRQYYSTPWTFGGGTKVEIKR
**Q.** Does B2 bind [2]?
**A.** Result: no binding (tested: up to 300 nM)

**Q.** Does B2 bind [3]?
**A.** Result: no binding (tested: up to 300 nM)

**Q.** And the Kd [1]?
**A.** Its Kd is 1.18 nM.

**Q.** And the koff [1]?
**A.** Its koff is 0.000185 s⁻¹.

**Q.** And the kon [1]?
**A.** Its kon is 157000 M⁻¹ s⁻¹.

B3: COVID19_P10_A09 (scFv, V domains shown)
VH: QVQLVQSGAEVKKPGSSVKVSCKASGYTFTDYYIHWVRQAPGQGLEWMGWMNPNSGNTGYAQNFQGRVTITADESTSTAYMELSSLRSEDTAVYYCAGGSGISTAWDVWGQGTLVTVSS
VL: DIVMTQSPDSLAVSLGERATIRCTSSLSLQDRSNNKNYLTWYQQKPGQPPKLLIYWASTRESGVPDRFSGSGSGTDFTLTISSLQAEDVAVYYCQQHYSAPLTFGGGTKVEIKR
**Q.** Does B3 bind [4]?
**A.** Result: no binding (tested: up to 300 nM)

**Q.** Does B3 bind [5]?
**A.** Result: no binding (tested: up to 300 nM)

**Q.** And the Kd [1]?
**A.** The Kd was 20.5 nM.

**Q.** What about the koff [1] of the same binder?
**A.** The koff was 0.00112 s⁻¹.

**Q.** And the kon [1]?
**A.** Its kon is 54800 M⁻¹ s⁻¹.

B4: COVID19_P09_B10 (scFv, V domains shown)
VH: QVQLVQSGAEVKKPGSSVKVSCKASGYSFTDYHIHWVRQAPGQGLEWMAMIVPRGGSTTYAQKFQGRVTITADESTSTAYMELSSLRSEDTAVYYCAGGSGISTPMDVWGQGTLVTVSS
VL: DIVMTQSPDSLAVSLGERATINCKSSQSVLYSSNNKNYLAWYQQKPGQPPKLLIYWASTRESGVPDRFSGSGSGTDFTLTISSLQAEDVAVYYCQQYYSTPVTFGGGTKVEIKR
**Q.** Does B4 bind [6]?
**A.** Result: no binding (tested: up to 300 nM)

**Q.** Does B4 bind [7]?
**A.** Result: no binding (tested: up to 300 nM)

**Q.** And the Kd [1]?
**A.** The Kd was 39.7 nM.

**Q.** And the koff [1]?
**A.** The koff was 0.00323 s⁻¹.

**Q.** And the kon [1]?
**A.** Its kon is 81400 M⁻¹ s⁻¹.

B5: COVID19_P10_B08 (scFv, V domains shown)
VH: QVQLVQSGAEVKKPGSSVKVSCKASGGGFITYWIGWVRQAPGQGLEWMGWINPNSGGTKYAQKFQGRVTITADESTSTAYMELSSLRSEDTAVYYCAGGSGISTPIDVWGQGTLVTVSS
VL: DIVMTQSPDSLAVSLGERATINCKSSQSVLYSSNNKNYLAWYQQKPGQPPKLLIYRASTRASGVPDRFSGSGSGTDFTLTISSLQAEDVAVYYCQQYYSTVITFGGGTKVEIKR
**Q.** What does the source list for B5?
**A.** Kd [1]: 41.3 nM; koff [1]: 0.0217 s⁻¹; kon [1]: 527000 M⁻¹ s⁻¹

B6: COVID19_P10_B10 (scFv, V domains shown)
VH: QVQLVQSGAEVKKPGSSVKVSCKASGYSFSDYHVHWVRQAPGQGLEWVGMIIPRHGGTAYAQKFQGRVTITADESTSTAYMELSSLRSEDTAVYYCAGGSGISTPMDVWGQGTLVTVSS
VL: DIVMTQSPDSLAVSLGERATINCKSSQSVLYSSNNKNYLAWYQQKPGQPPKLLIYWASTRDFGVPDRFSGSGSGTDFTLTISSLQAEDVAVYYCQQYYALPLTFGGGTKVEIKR
**Q.** Which results are given for B6?
**A.** binding result [8]: no binding (tested: up to 300 nM); binding result [9]: no binding (tested: up to 300 nM); Kd [1]: 46.2 nM; koff [1]: 0.014 s⁻¹; kon [1]: 302000 M⁻¹ s⁻¹

B7: COVID19_P21_B01 (scFv, V domains shown)
VH: QVQLVQSGAEVKKPGSSVKVSCKASGYTFSTYWIGWVRQAPGQGLEWMGWIDPNSGGTNYAQKFQGRVTITADESTSTAYMELSSLRSEDTAVYYCAGGSGISTPMDVWGQGTLVTVSS
VL: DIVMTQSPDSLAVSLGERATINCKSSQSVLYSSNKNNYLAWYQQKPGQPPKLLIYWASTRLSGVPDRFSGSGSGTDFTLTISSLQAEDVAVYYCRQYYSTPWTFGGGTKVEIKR
**Q.** Does B7 bind [10]?
**A.** Result: no binding (tested: up to 300 nM)

**Q.** Does B7 bind [11]?
**A.** Result: no binding (tested: up to 300 nM)

**Q.** And the Kd [1]?
**A.** Its Kd is 0.91 nM.

**Q.** And the koff [1]?
**A.** The koff was 5.7e-05 s⁻¹.

**Q.** And the kon [1]?
**A.** Its kon is 62400 M⁻¹ s⁻¹.

B8: COVID19_P21_B12 (scFv, V domains shown)
VH: QVQLVQSGAEVKKPGSSVKVSCKASGGTFSSYAISWVRQAPGQGLEWMGMINPGGGNTNYAEKFQGRVTITADESTSTAYMELSSLRSEDTAVYYCAGEWGISTPMDVWGQGTLVTVSS
VL: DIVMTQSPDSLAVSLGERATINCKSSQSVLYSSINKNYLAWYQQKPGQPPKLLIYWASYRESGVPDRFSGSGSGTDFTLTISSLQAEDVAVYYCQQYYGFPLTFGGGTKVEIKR
**Q.** With B8 as the binder, how does the Kd [1] read?
**A.** Its Kd is 37.6 nM.

**Q.** And the koff [1]?
**A.** Its koff is 0.0104 s⁻¹.

**Q.** And the kon [1]?
**A.** The kon was 276000 M⁻¹ s⁻¹.

B9: COVID19_P09_G05 (scFv, V domains shown)
VH: QVQLVQSGAEVKKPGSSVKVSCKASGYTFTGHYMHWVRQAPGQGLEWMGIIYPGDSEARYSQKFQGRVTITADESTSTAYMELSSLRSEDTAVYYCAGGSGISTPMDVWGQGTLVTVSS
VL: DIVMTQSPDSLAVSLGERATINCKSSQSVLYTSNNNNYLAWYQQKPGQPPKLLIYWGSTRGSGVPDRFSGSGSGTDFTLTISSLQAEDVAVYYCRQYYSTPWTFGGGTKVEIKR
**Q.** What does the source list for B9?
**A.** Kd [1]: 11.3 nM; koff [1]: 0.000482 s⁻¹; kon [1]: 42600 M⁻¹ s⁻¹

B10: COVID19_P21_F02 (scFv, V domains shown)
VH: QVQLVQSGAEVKKPGSSVKVSCKASGYTFTSYGISWVRQAPGQGLEWMGIIYPGDGTTRYSQKFQGRVTITADESTSTAYMELSSLRSEDTAVYYCLPGSGISTPMDVWGQGTLVTVSS
VL: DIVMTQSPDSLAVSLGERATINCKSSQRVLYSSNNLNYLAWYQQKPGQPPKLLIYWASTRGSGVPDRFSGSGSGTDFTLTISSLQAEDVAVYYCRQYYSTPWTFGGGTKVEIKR
**Q.** What does the source list for B10?
**A.** Kd [1]: 26.8 nM; koff [1]: 0.000679 s⁻¹; kon [1]: 25400 M⁻¹ s⁻¹

B11: COVID19_P21_B09 (scFv, V domains shown)
VH: QVQLVQSGAEVKKPGSSVKVSCKASGYTFTGHYMHWVRQAPGQGLEWMGIIYPGDSEARYSQKFQGRVTITADESTSTAYMELSSLRSEDTAVYYCAGGSGISTPMDVWGQGTLVTVSS
VL: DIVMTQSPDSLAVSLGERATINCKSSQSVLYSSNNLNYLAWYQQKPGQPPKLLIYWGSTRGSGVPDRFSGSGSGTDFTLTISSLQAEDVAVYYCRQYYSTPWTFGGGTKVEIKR
**Q.** Which results are given for B11?
**A.** binding result [12]: no binding (tested: up to 300 nM); binding result [13]: no binding (tested: up to 300 nM); Kd [1]: 3.71 nM; koff [1]: 0.000207 s⁻¹; kon [1]: 55900 M⁻¹ s⁻¹

B12: COVID19_P09_B09 (scFv, V domains shown)
VH: QVQLVQSGAEVKKPGSSVKVSCKASGYRFTDYHLHWVRQAPGQGLEWMGGIVPFSGTTNFAQKFQGRVTITADESTSTAYMELSSLRSEDTAVYYCAGGSGETTPMDVWGQGTLVTVSS
VL: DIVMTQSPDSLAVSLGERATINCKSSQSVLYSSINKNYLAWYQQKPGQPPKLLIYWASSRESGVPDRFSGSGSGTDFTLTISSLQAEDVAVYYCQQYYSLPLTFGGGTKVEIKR
**Q.** Does B12 bind [14]?
**A.** Result: no binding (tested: up to 300 nM)

**Q.** Does B12 bind [15]?
**A.** Result: no binding (tested: up to 300 nM)

**Q.** And the Kd [1]?
**A.** The Kd was 22.9 nM.

**Q.** And the koff [1]?
**A.** The koff was 0.000507 s⁻¹.

**Q.** What about the kon [1] of the same binder?
**A.** The kon was 22100 M⁻¹ s⁻¹.

B13: COVID19_P22_F11 (scFv, V domains shown)
VH: QVQLVQSGAEVKKPGSSVKVSCKASGGGFITYWISWVRQAPGQGLEWMGIIYPGDGEARYSQKFQGRVTITADESTSTAYMELSSLRSEDTAVYYCAGGSGIIQPMDVWGQGTLVTVSS
VL: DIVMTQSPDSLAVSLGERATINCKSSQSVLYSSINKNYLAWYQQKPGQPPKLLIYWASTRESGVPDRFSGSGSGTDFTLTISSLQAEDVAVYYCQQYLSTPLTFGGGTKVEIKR
**Q.** Which results are given for B13?
**A.** binding result [16]: no binding (tested: up to 300 nM); binding result [17]: no binding (tested: up to 300 nM); Kd [1]: 23.3 nM; koff [1]: 0.0093 s⁻¹; kon [1]: 400000 M⁻¹ s⁻¹

B14: COVID19_P21_A04 (scFv, V domains shown)
VH: QVQLVQSGAEVKKPGSSVKVSCKASGYGFITYWIGWVRQAPGQGLEWMGIIYPGDSETRYSQKFQGRVTITADESTSTAYMELSSLRSEDTAVYYCAGGSGLLTPMDVWGQGTLVTVSS
VL: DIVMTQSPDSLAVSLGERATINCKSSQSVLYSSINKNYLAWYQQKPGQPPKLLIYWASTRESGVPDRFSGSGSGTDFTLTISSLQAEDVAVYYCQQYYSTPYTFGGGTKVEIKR
**Q.** B14 was tested. Which Kd [1] did it give?
**A.** Its Kd is 35 nM.

**Q.** What about the koff [1] of the same binder?
**A.** The koff was 0.0143 s⁻¹.

**Q.** And the kon [1]?
**A.** The kon was 409000 M⁻¹ s⁻¹.

B15: COVID19_P09_G12 (scFv, V domains shown)
VH: QVQLVQSGAEVKKPGSSVKVSCKASGYPFTNYGISWVRQAPGQGLEWMGWMNPNSGNTGYAQKFQGRVTITADESTSTAYMELSSLRSEDTAVYYCATLSGISTPMDVWGQGTLVTVSS
VL: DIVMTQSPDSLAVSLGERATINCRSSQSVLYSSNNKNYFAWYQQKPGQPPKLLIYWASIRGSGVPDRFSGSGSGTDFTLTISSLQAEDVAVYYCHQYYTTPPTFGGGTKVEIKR
**Q.** Does B15 bind [18]?
**A.** Result: no binding (tested: up to 300 nM)

**Q.** Does B15 bind [19]?
**A.** Result: no binding (tested: up to 300 nM)

**Q.** What about the Kd [1] of the same binder?
**A.** The Kd was 0.4 nM.

**Q.** And the koff [1]?
**A.** The koff was 0.000363 s⁻¹.

**Q.** And the kon [1]?
**A.** Its kon is 828000 M⁻¹ s⁻¹.

B16: COVID19_P21_B02 (scFv, V domains shown)
VH: QVQLVQSGAEVKKPGSSVKVSCKASGYTFTNYGINWVRQAPGQGLEWMGWMNPNSGNTGYAQKFQGRVTITADESTSTAYMELSSLRSEDTAVYYCAAVSGISTPMDVWGQGTLVTVSS
VL: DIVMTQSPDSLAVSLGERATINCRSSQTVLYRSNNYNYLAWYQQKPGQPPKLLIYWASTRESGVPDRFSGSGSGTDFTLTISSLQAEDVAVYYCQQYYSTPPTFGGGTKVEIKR
**Q.** Which results are given for B16?
**A.** binding result [20]: no binding (tested: up to 300 nM); binding result [21]: no binding (tested: up to 300 nM); Kd [1]: 45.5 nM; koff [1]: 0.0127 s⁻¹; kon [1]: 278000 M⁻¹ s⁻¹
